In US20140322210A1:
Read-outs that look alike come from different tables or passages of the source.

What was measured:
[1] = target: Hemagglutinin of H5N1 A/VN/1204 (influenza A virus); assay: cell-based or functional assay
[2] = target: Hemagglutinin of H1N1 A/CA/07/09 (influenza A virus); assay: cell-based or functional assay
[3] = target: Hemagglutinin of H3N2 A/Hong Kong/8/68 (influenza A virus); assay: cell-based or functional assay
[4] = target: Hemagglutinin of H3N2 A/Perth/16/2009 (influenza A virus); assay: cell-based or functional assay
[5] = target: Hemagglutinin of H3N2 A/New York/55/2004 (influenza A virus); assay: cell-based or functional assay
[6] = target: Hemagglutinin of H7N7 A/Netherlands/219/03 (influenza A virus); assay: cell-based or functional assay
[7] = target: Hemagglutinin of H3N2 A/Wisconsin/67/2005 (influenza A virus); assay: cell-based or functional assay
[8] = target: Hemagglutinin of H4N4 A/Bufflehead (influenza A virus); assay: cell-based or functional assay
[9] = target: Hemagglutinin of H3N2 A/Hong Kong/8/68 (influenza A virus); assay: FortéBio
[10] = target: Hemagglutinin of H3N2 A/Perth/16/2009 (influenza A virus); assay: FortéBio
[11] = target: Hemagglutinin of H7N7 A/Netherlands/219/03 (influenza A virus); assay: FortéBio
[12] = target: Hemagglutinin of H3N2 A/Hong Kong/8/68 (influenza A virus); assay: affinity, method not named in Table 3
[13] = target: Hemagglutinin of H3N2 A/Perth/16/2009 (influenza A virus); assay: affinity, method not named in Table 3
[14] = target: Hemagglutinin of H3N2 A/New York/55/2004 (influenza A virus); assay: affinity, method not named in Table 3
[15] = target: Hemagglutinin of H7N7 A/Netherlands/219/03 (influenza A virus); assay: affinity, method not named in Table 3
[16] = target: Hemagglutinin of H7N3 A/Canada/rv444/04 (influenza A virus); assay: affinity, method not named in Table 3
[17] = target: Hemagglutinin of H3 A/Udorn/307/1976 (influenza A virus); assay: cell-based or functional assay
[18] = target: Hemagglutinin of H3N2 A/Hong Kong/8/68 (influenza A virus); assay: cell-based or functional assay; remark: listed apart in the source
[19] = target: Hemagglutinin of H10N7 A/Northern Shoveler (influenza A virus); assay: cell-based or functional assay
[20] = target: Hemagglutinin of H7 A/Ruddy Turnstone/A106-892 (influenza A virus); assay: cell-based or functional assay
[21] = target: Hemagglutinin of H3N2 A/Perth/16/2009 (influenza A virus); assay: cell-based or functional assay; remark: listed apart in the source
[22] = target: Hemagglutinin of H3N2 A/New York/55/2004 (influenza A virus); assay: cell-based or functional assay; remark: listed apart in the source
[23] = target: Hemagglutinin of H7N7 A/Netherlands/219/03 (influenza A virus); assay: cell-based or functional assay; remark: listed apart in the source
[24] = target: Hemagglutinin of H3 A/SW/MN/02719 (influenza A virus); assay: cell-based or functional assay
[25] = target: Hemagglutinin of H3N2 A/Wisconsin/67/2005 (influenza A virus); assay: cell-based or functional assay; remark: listed apart in the source
[26] = target: Hemagglutinin of H3 A/Phillipines/2/82 x-79 (influenza A virus); assay: cell-based or functional assay
[27] = target: Hemagglutinin of H4N4 A/Bufflehead (influenza A virus); assay: cell-based or functional assay; remark: listed apart in the source
[28] = target: Hemagglutinin of H7 A/Redknot/NJ/1523470/06 (influenza A virus); assay: cell-based or functional assay
[29] = target: Hemagglutinin of H7N3 A/Canada/rv444/04 (influenza A virus); assay: cell-based or functional assay
[30] = target: Hemagglutinin of H7 A/Sanderling/A106-125 (influenza A virus); assay: cell-based or functional assay
[31] = target: Hemagglutinin of H5 Vietnam/1203/2004 (influenza A virus); assay: FortéBio
[32] = target: Hemagglutinin of H1N1 A/CA/07/09 (influenza A virus); assay: FortéBio
[33] = target: Influenza A hemagglutinin of clade H1 (strain not stated) (influenza A virus); assay: FortéBio biolayer interferometry
[34] = target: Influenza A hemagglutinin of clade H7 (strain not stated) (influenza A virus); assay: FortéBio biolayer interferometry
[35] = target: Influenza A hemagglutinin of clade H9 (strain not stated) (influenza A virus); assay: FortéBio biolayer interferometry
[36] = target: Influenza A hemagglutinin of clade H5 (strain not stated) (influenza A virus); assay: FortéBio biolayer interferometry
[37] = target: Hemagglutinin of H5N1 A/VN/1204 (influenza A virus); assay: affinity, method not named in Table 3
[38] = target: Hemagglutinin of H1N1 A/CA/07/09 (influenza A virus); assay: affinity, method not named in Table 3
[39] = target: Hemagglutinin of H2N2 A/Mallard/MN/2008 (influenza A virus); assay: cell-based or functional assay
[40] = target: Hemagglutinin of H5N1 A/VN/1204 (influenza A virus); assay: cell-based or functional assay; remark: listed apart in the source
[41] = target: Hemagglutinin of H9N2 Mallard/MN/98 (influenza A virus); assay: cell-based or functional assay
[42] = target: Hemagglutinin of H1N1 A/CA/07/09 (influenza A virus); assay: cell-based or functional assay; remark: listed apart in the source
[43] = target: Influenza A hemagglutinin of clade H3 (strain not stated) (influenza A virus); assay: FortéBio biolayer interferometry

“CR6261 (mAb cloned from Crucell patents) (antibody)” was tested, and the EC50 for in vitro neutralization [1] was 3.7 µg/mL and the EC50 for in vitro neutralization [2] was 4 µg/mL.

“CR8020 (mAb cloned from Crucell patents) (antibody)” showed an EC50 for in vitro neutralization [3] of 7.6 µg/mL, an EC50 for in vitro neutralization [4] of 2 µg/mL and an EC50 for in vitro neutralization [5] of 10 µg/mL. For the same molecule, the EC50 for in vitro neutralization [6] was 13.1 µg/mL, the EC50 for in vitro neutralization [7] was 3.5 µg/mL and the EC50 for in vitro neutralization [8] was greater than 40 µg/mL.

B1: MAB579 (antibody, V domains shown)
VH: QVQLVQSGAEVKKPGASVKVSCKTSGYTFTAYTIHWVRQAPGQRLEWMGWINAGNGHTKYSQRFKGRVTITRDTSARTTYMELRSLTSEDTALYFCARGPETYYYDKTNWLNSHPDEYFQHWGHGTQVTVSS
VL: DIQMTQSPSTLSASVGDRVTITCRASQTINNYLAWYQQKPGKAPKLLIYKASSLESGVPSRFSGSGSGTEFTLTISSLQPDDFATYYCQEYNNDSPLTFGGGTKVEIK
Work on B1 yielded a Kd [9] of 0.2 nM, a Kd [10] of 0.7 nM and a Kd [11] of 0.4 nM. It also gave a Kd [12] of 0.2 nM, a Kd [13] of 0.8 nM and a Kd [14] of 0.2 nM. It also gave a Kd [15] of 0.4 nM, a Kd [16] of 0.6 nM and an IC50, MDCK monolayer microneutralization assay [17] of 1.9 µg/mL. The EC50 for in vitro neutralization [18] was 2 µg/mL, the IC50, MDCK monolayer microneutralization assay [18] was 2.8 µg/mL and the Potency Difference (MAB579 against CR8020) [18] was 3 x. For the same molecule, the EC50 for in vitro neutralization [19] was 0.8 µg/mL, the IC50, MDCK monolayer microneutralization assay [19] was 0.8 µg/mL and the IC50, MDCK monolayer microneutralization assay [20] was greater than 20 µg/mL. It also gave an EC50 for in vitro neutralization [21] of 0.05 µg/mL, an IC50, MDCK monolayer microneutralization assay [21] of 0.2 µg/mL and a Potency Difference (MAB579 against CR8020) [21] of 40 x. The EC50 for in vitro neutralization [22] was 2 µg/mL, the IC50, MDCK monolayer microneutralization assay [22] was 1.1 µg/mL and the Potency Difference (MAB579 against CR8020) [22] was 5 x. For the same molecule, the EC50 for in vitro neutralization [23] was 0.7 µg/mL, the IC50, MDCK monolayer microneutralization assay [23] was 0.6 µg/mL and the Potency Difference (MAB579 against CR8020) [23] was 20 x. It also gave an IC50, MDCK monolayer microneutralization assay [24] of 3.9 µg/mL, an EC50 for in vitro neutralization [25] of 1 µg/mL and an IC50, MDCK monolayer microneutralization assay [25] of 1 µg/mL. For the same molecule, the Potency Difference (MAB579 against CR8020) [25] was 3 x, the IC50, MDCK monolayer microneutralization assay [26] was 0.9 µg/mL and the EC50 for in vitro neutralization [27] was 15 µg/mL. The IC50, MDCK monolayer microneutralization assay [27] was 15.5 µg/mL, the Potency Difference (MAB579 against CR8020) [27] was 3 x and the IC50, MDCK monolayer microneutralization assay [28] was greater than 20 µg/mL. The EC50 for in vitro neutralization [29] was 0.5 µg/mL, the IC50, MDCK monolayer microneutralization assay [29] was 1.6 µg/mL and the IC50, MDCK monolayer microneutralization assay [30] was greater than 20 µg/mL.

B2: MAB53 (antibody, V domains shown)
VH: QVQLVQSGAEVRKPGSSVKVSCKVSGGIIRKYAINWVRQAPGQGLEWMGGIIAIFNTANYAQKFQGRVTITADESTSTVYMELSSLRSEDTALYYCARGMNYYSDYFDYWGQGSLVTVSP
VL: EIVLTQSPGTLSLSPGERATLSCRASQSVRSNNLAWYQHKPGQAPRLLIFGASSRATGIPDRFSGSGSGTDFTLTISRLEPEDFAVYYCQQYGSSPALTFGGGTKVEIK
In the case of B2, the Kd [31] is reported as 0.5 nM, the Kd [32] is reported as 0.2 nM and the Kd [33] is reported as 0.06 nM. The Kd [34] was 0.07 nM, the Kd [35] was 0.03 nM and the Kd [36] was 6 nM. For the same molecule, the Kd [37] was 0.5 nM, the Kd [38] was 0.1 nM and the EC50 for in vitro neutralization [39] was 1.2 µg/mL. It also gave an EC50 for in vitro neutralization [40] of 0.1 µg/mL, a Potency Difference (MAB53 against CR6261) [40] of 40 x and an EC50 for in vitro neutralization [41] of 0.1 µg/mL. It also gave an EC50 for in vitro neutralization [42] of 0.14 µg/mL and a Potency Difference (MAB53 against CR6261) [42] of 30 x.

B3: MAB8 (antibody, V domains shown)
VH: EVQLVESGGGLVKPGGSLRLSCAASGFTFSTYTMSWVRQAPGQGLEWVSSITRTSSNIYYADSVEGRFTISRDNAKNSLYLQMHSLRVEDTAVYYCARISGVVGPVPFDYWGQGTLITVSS
VL: DIQMTQSPSSLSASVGDRVTITCRASQTISKYLNWYQQKPGRAPKLLIYSASSLQSGVPSRFTGSGSGTDFTLTITSLQPEDFATYYCQQSYRPSQITFGPGTKVDIK
For B3, the Kd [33] was 9 nM, the Kd [43] was 16 nM and the Kd [36] was 0.2 nM.
